Source: patent publication US12214004B2, “Strains having effects of preventing or treating cancers” (Genome And Company, priority 2018, dated 2025)
Like-named read-outs stand apart in the source and are kept apart here.

How the values were obtained:
HCT116 [1] = assay: HCT116 cell viability, anticancer chemotherapeutic agent with GEN3033
HCT116 [2] = system: HCT116
MC38 cancer cells = assay: MC38 tumor-induced model in C57BL/6 mice, MG731; type: in vivo, mouse; conditions: administered in combination with MG731
Method: Prior to constructing a tumor model, a sample of lactic acid bacteria was administered to mice for 2 weeks to increase intestinal establishment and immunity, and then 2×10^5 MC38 cancer cells were injected subcutaneously in the vicinity of the right hip of 8 C57BL/6 mice per group to construct a tumor-induced model. Simultaneously with injection of tumor cells, a sample of lactic acid bacteria was orally administered to the animal model for 3 weeks (from Monday to Saturday). The sample of lactic acid bacteria to be administered was diluted in 200 μL of PBS so as to be 1×10^9 of CFU per head and then administered orally.

HCT116 [3] = assay: Cell lysis ability of PBMC against cancer cells (CFSE/7-AAD), MG731; type: cell-based; conditions: cancer cell death caused by PBMC set to 100%
Method: (§1) PBMCs (peripheral blood mononuclear cells) were collected from the human blood using Ficoll, and then red blood cells were removed through RBC lysis buffer, and the number of living cells was counted, and the cells were cultured for 24 hours in a round bottom 96 well plate containing lactic acid bacteria (6×10^5/50 ul/well) by adding PBMC 3 x 10^4 cells/50 μl to each well.
(§2) The colon cancer cell line HCT116 was mixed with 5 μM of CFSE (carboxyfluorescein succinimidyl ester) in RPMI medium without FBS, and reacted at 37° C. for 5 minutes, and then RPMI1640 medium containing FBS was added, and stored on ice for 10 minutes. After the supernatant was removed by centrifugation, the obtained cells were mixed with RPMI1640 containing 10% FBS, and then the number of cells was counted, and 3×10^4 cells/100 μl were added to each well of the above prepared 96 well plate.
Staining for CFSE and 7-AAD using FACSDiVa software (BD Biosciences) was measured to confirm the cell lysis ability of PBMC against cancer cell lines, and the results are shown in FIG. 9.

HCT116 [4] = assay: Cell lysis ability of PBMC against cancer cells (CFSE/7-AAD), GEN3033; type: cell-based, human; conditions: cancer cell death caused by PBMC set to 100%
Method: as §1, with “(3×10^5/50” for “(6×10^5/50”
as §2
Staining for CFSE and 7-AAD using FACSDiVa software (BD Biosciences) was measured to confirm the cell lysis ability of PBMC against cancer cell lines, and the results are shown in FIG. 29.

[5] = HCT116, combination treatment with 0.5% GEN3033, compared to the agent alone

O=c1[nH]cc(F)c(=O)[nH]1 [5-FU, fluorouracil]
cancer cell death (HCT116 [1]; [5]): remarkably high

N.N.[Cl][Pt][Cl] [Cisplatin, cisplatin]
cell viability (HCT116 [1]; HCT116, 7 μM Cisplatin in combination with 0.5% GEN3033, compared to 7 μM Cisplatin alone): remarkably reduced

O=P1(N(CCCl)CCCl)NCCCO1 (stereo not drawn) [cyclophosphamide]
cancer cell death (HCT116 [1]; [5]): remarkably high

O=C1[O][Pt]2([NH][C@@H]3CCCC[C@H]3[NH]2)[O]C1=O [oxaliplatin]
cell viability (HCT116 [2]): ≥ 90%
tumor inhibitory effect (MC38 cancer cells): more excellent
cancer cell death (HCT116 [1]): remarkably high

CC(=O)O[C@H]1C(=O)[C@@]2(C)[C@H]([C@H](OC(=O)c3ccccc3)[C@]3(O)C[C@H](OC(=O)[C@H](O)[C@@H](NC(=O)c4ccccc4)c4ccccc4)C(C)=C1C3(C)C)[C@]1(OC(C)=O)CO[C@@H]1C[C@@H]2O [paclitaxel]
cancer cell death (HCT116 [1]; [5]): remarkably high

Atezolizumab [anti-PD-L1]
cancer cell death (cytotoxicity) (HCT116 [3]; alone): 133.6%
cancer cell death (cytotoxicity) (HCT116 [3]; in combination with MG731): 221.6%
cancer cell death (cytotoxicity) (HCT116 [4]; alone): 123.5%
cancer cell death (cytotoxicity) (HCT116 [4]; in combination with GEN3033): 154.0%

Ipilimumab [antiCTLA-4]
cancer cell death (cytotoxicity) (HCT116 [3]; alone): 108%
cancer cell death (cytotoxicity) (HCT116 [3]; in combination with MG731): 214.4%
cancer cell death (cytotoxicity) (HCT116 [4]; alone): 116.0%
cancer cell death (cytotoxicity) (HCT116 [4]; in combination with GEN3033): 128.3%
